Data taken from PMC2613574.

How the values were obtained:
[1] = target: FNfn10 wild-type N fragment displayed on the yeast surface (Aga2p fusion, FLAG tag) (human); assay: flow cytometry on cells
[2] = target: FNfn10 ND7N fragment displayed on the yeast surface (Aga2p fusion, FLAG tag) (human); assay: flow cytometry on cells

log(B/E ratio) [1] | Kd [2] | Substance
1.3 | – | FNfn10 C fragment, wild type, co-secreted in yeast (V5 tag) (domain or fragment)
– | 25.3 nM | ubiquitin fusion of the FNfn10 C fragment with the V5 tag (domain or fragment)
